Consider one molecule from patent US7507716B2, “Method for treating pain with prolactin antagonists” (Board of Regents, The University of Texas System, priority 2005, dated 2009).

This assay concerns TRPV1. The assay is described as follows: TRPV1 phosphorylation (32P incorporation, immunoprecipitation). In kind it is cell-based, rat. The following applies: PRL 40 nM 10 min. The method, then: The activity of TRPV1 is dependent upon its phosphorylation status. Hyperphosphorylation of TRPV1 is associated with increased responsiveness to capsaicin (Bhave et al., 2003; Mohapatra and Nau, 2005; Zhang et al., 2005; Mandadi et al., 2006). Since PRL-signaling through PRL-R is known to activate various intracellular kinases pathways, the effect of PRL on TRPV1 phosphorylation status in cultured TG neurons was assessed. Cultured TG neurons were incubated with PRL (40 nM) or vehicle for 10 min in the presence of radioactive phosphate (P^32-orthophosphate). Extracts of the radiolabelled TG cultures were prepared and subjected to immunoprecipated using an antibody that specifically recognizes TRPV1, and the resulting immune complexes were resolved by SDS-PAGE and prepared for immunoblot analysis. The blots were subjected to autoradiography to visualize radiolabelled P^32-TRPV1 and to determine its relative abundance in the presence of PRL. The resolved protein was then immunoblotted using an antibody raised against TRPV1 to ensure that the observed differences in radiolabelled TRPV1 abundance are not due to technical errors (e.g., unequal gel loading). […]
Autoradiography and Western blot results were scanned and quantified using NIH Image 1.62. […]

B1: PRL: Ovine PRL [oPRL-21, BIO] provided by NHPP; prolactin polypeptide hormone (protein, UniProt P01240 31-229, looked up)
Prolactin: TPVCPNGPGNCQVSLRDLFDRAVMVSHYIHNLSSEMFNEFDKRYAQGKGFITMALNSCHTSSLPTPEDKEQAQQTHHEVLMSLILGLLRSWNDPLYHLVTEVRGMKGVPDAILSRAIEIEEENKRLLEGMEMIFGQVIPGAKETEPYPVWSGLPSLQTKDEDARHSAFYNLLHCLRRDSSKIDTYLKLLNCRIIYNNNC
Consider B1, for which the TRPV1 phosphorylation status entry (TG neurons from OVX rats) is on record as “no observable effect”. For the same molecule, the “phosphorylation state of TRPV1” value (neurons from intact female rats) stood at 150±13%.
